This is an account of results in patent US20050064411.

One data set concerns the target T1, FLAG-AICD, P05067.
T1 chain: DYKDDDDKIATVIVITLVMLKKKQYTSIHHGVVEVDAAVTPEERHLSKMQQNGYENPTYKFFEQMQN

B1: NEDL-1 protein (protein)
chain: MASPSRNSQSRRRCKEPLRYSYNPDQFHNMDLRGGPHDGVTIPRSTSDTDLVTSDSRSTLMVSSSYYSIGHSQDLVIHWDIKEEVDAGDWIGMYLIDEVLSENFLDYKNRGVNGSHRGQIIWKIDASSYFVEPETKICFKYYHGVSGALRATTPSVTVKNSAAPIFKSIGADETVQGQGSRRLISFSLSDFQAMGLKKGMFFNPDPYLKISIQPGKHSIFPALPHHGQERRSKIIGNTVNPIWQAEQFSFVSLPTDVLEIEVKDKFAKSRPIIKRFLGKLSMPVQRLLERHAIGDRVVSYTLGRRLPTDHVSGQLQFRFEITSSIHPDDEEISLSTEPESAQIQDSPMNNLMESGSGEPRSEAPESSESWKPEQLGEGSVPDRPGNQSIELSRPAEEAAVITEAGDQGMVSVGPEGAGELLAQVQKDIQPAPSAEELAEQLDLGEEASALLLEDGEAPASTKEEPLEEEATTQSRAGREEEEKEQEEEGDVSTLEQGEGRLQLRASVKRKSRPCSLPVSELETVIASACGDPETPRTHYIRIHTLLHSMPSAQGGSAAEEEDGAEEESTLKDSSEKDGLSEVDTVAADPSALEEDREEPEGATPGTAHPGHSGGHFPSLANGAAQDGDTHPSTGSESDSSPRQGGDHSCEGCDASCCSPSCYSSSCYSTSCYSSSCYSASCYSPSCYNGNRFASHTRFSSVDSAKISESTVFSSQDDEEEENSAFESVPDSMQSPELDPESTNGAGPWQDELAAPSGHVERSPEGLESPVAGPSNRREGECPILHNSQPVSQLPSLRPEHHHYPTIDEPLPPNWEARIDSHGRVFYVDHVNRTTTWQRPTAAATPDGMRRSGSIQQMEQLNRRYQNIQRTIATERSEEDSGSQSCEQAPAGGGGGGGSDSEAESSQSSLDLRREGSLSPVNSQKITLLLQSPAVKFITNPEFFTVLHANYSAYRVFTSSTCLKHMILKVRRDARNFERYQHNRDLVNFINMFADTRLELPRGWEIKTDQQGKSFFVDHNSRATTFIDPRIPLQNGRLPNHLTHRQHLQRLRSYSAGEASEVSRNRGASLLARPGHSLVAAIRSQHQHESLPLAYNDKIVAFLRQPNIFEMLQERQPSLARNHTLREKIHYIRTEGNHGLEKLSCDADLVILLSLFEEEIMSYVPLQAAFHPGYSFSPRCSPCSSPQNSPGLQRASARAPSPYRRDFEAKLRNFYRKLEAKGFGQGPGKIKLIIRRDHLLEGTFNQVMAYSRKELQRNKLYVTFVGEEGLDYSGPSREFFFLLSQELFNPYYGLFEYSANDTYTVQISPMSAFVENHLEWFRFSGRILGLALIHQYLLDAFFTRPFYKALLRLPCDLSDLEYLDEEFHQSLQWMKDNNITDILDLTFTVNEEVFGQVTERELKSGGANTQVTEKNKKEYIERMVKWRVERGVVQQTEALVRGFYEVVDSRLVSVFDARELELVIAGTAEIDLNDWRNNTEYRGGYHDGHLVIRWFWAAVERFNNEQRLRLLQFVTGTSSVPYEGFAALRGSNGLRRFCIEKWGKITSLPRAHTCFNRLDLPPYPSYSMLYEKLLTAVEETSTFGLE
On to B1, for which, in the data set with FLAG-AICD, P05067, the “ubiquitination (bands increasing by about 9 kD detected with anti-ubiquitin antibody)” value is “It is understood that ACID alone is subjected to ubiquitination by NEDL-1”. In addition, the “ubiquitination (immunoprecipitation with FLAG, blotting with anti-ubiquitin antibody, FIG. 13)” value with SOD1 mutants is “the degree of ubiquitination drastically increases in the presence of NEDL-1”.
